In publication PMC2926592 one finds percent decrease in POLβ retention against WT XRCC1 and fold decrease in POLβ retention against WT XRCC1 data, which are given here for 1 substance.

The target of assay [1] is human XRCC1 P161L population variant, recombinant, S-peptide- and His-tagged (human) (UniProt P18887). Briefly: pull-down.
In assay [2] the target is human XRCC1 R109A variant, recombinant, S-peptide- and His-tagged (human) (UniProt P18887). Briefly: pull-down.

Take “DNA polymerase β (POLβ), recombinant (from UniProt P06746 1-335) (enzyme)”: the percent decrease in POLβ retention against WT XRCC1 in assay [1] amounted to 20%. In assay [2], the fold decrease in POLβ retention against WT XRCC1 stood at 5 fold and the percent decrease in POLβ retention against WT XRCC1 worked out at 83%.
